Laboratory results: the domain aggregation screens of Martell et al. (2025)

Assay: soluble fraction after stress (log2 fold change); higher = more stays soluble; pooled small domains, quantitative proteomics
Conditions: stress: 75 degC
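Also: 20 min heating vs room temperature control held 20 min.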

Sequence | soluble fraction (log2)
HMRPKAIFVDVDDTLVRSVGQTRIPMPAVIAHIRRLHDAGHQLYLWSSGGADYARASAEELGIGQYFQAFL | -0.268
HMRPRWTEQEVERAKAIKMIYPNAYRLESSDVFVQVWSKEEILLAHVEVDMFPSLRPGQPVELDEIIG | -1.19
HMRPTAWDQISDWLDRHGSIANADVVRIAGLDTLKASKLLTTWREQGLLEPLPGRGKRNMAYVRAI | -0.887
HMRPTVNETQIREVFRSILGREVDPEGLRHYLGQAAKGWSIDQIRADVNNSQEAHQRRAELARQAEELK | -0.0425
HMRQDEKTLLYWIAGHLKREGRQITERSARHLVEQVGTDMENLSREMEKLIAYTMGRTEITGQDIDDI | -1.77
HMRQEIIEDSRKLLEESLKRYDLTYQEFIDTLKSKNMNVESTLINIIKNQSSLDLVLRNLGLIAP | -0.0293
HMRQISDPTALASMVDKVIEDNPSAVADYRRGESKALGFLIGRVMQSSGGKANPKMIRGLLVKNLES | -0.284
HMRQMIIIMQKQAAASSVAAVVEFIRSKGLREHISPGAERTIIGAVGDERVFLPQELESLPQVERAIRVL | -3.67
HMRQPAAVEYSTFLDWVHASQVERVVFEGDTIRGVRVTGEGFVTYSPETDNTALIGELKKSRVQISATAP | -0.508
HMRQQAFWALVPEERDVLDETGAPLFRIGPTAWALVIEDRGEVFVVRDEDGRVGYLHEVDGVTR | -1.57
HMRQQLAEILQKAVDNLPEAQRLVWLLRDKSDMTFKEIAEDLQLTEANVRVLLHRARLKLLAVINQYEE | -1.66
HMRQYKEMPYRLFLIHLGKGLVDEVELSDKAKLTGKLKNGKIFITDNPRTENFKEQLLLHDVKVKEG | -0.329
HMRQYTPEQLETAVLVLEEVRQGRRLDRALRSHPMPDGRLIAKHVLVAAYRKLVAEGTWKEDPEFLSRIRM | -2
HMRRADRLLQLIQILRRHRRPVTGDVMARELEVSLRTVYRDIATLTIEGVPIRGEAGVGYVLGEGY | -2.41
HMRRDEDLAHGRELLEKELRKQGLEVSENLKQDKLLEGAKRLGFLEAEDLVVAVGSGKVSAGMAVGRIIG | -0.114
HMRREKVLIKLAENLASKVLRTKKSIELEPMTPYERKVIHTTIENISGVKSWSEGENLQRHLIVALDE | -1.5
HMRRGPLTPDDFVLDMRVVHPRYGVGRIVALSGSGESRKATVDFGGSIGRMKFVLSQSPLKP | -1.34
HMRRHLLEMNDAIGRLGRLISEDPADRDVAEVIWAALRGMVMGQMIMNEPIDWQRERRTLVEMAIGR | 0.0485
HMRRIADVVPEQLTREEAEELLETLAEQGEIHEEQALLARYILEQSLQGVAPEVEPLIRAKLLAGILMVY | -2.18
HMRRKDIEFTNTMLEELYRHNSKWYDAVVRAYALEIPQKQIAEEMGIRLEAFQSMLFRAKKWIKTKYEADY | -2.83
HMRRNLSGEDTIVNRMAQWQYTQEQKNELHKMMDAGMPQEDILSVFYPEIKAEEMHRFLLAFQTAHNSG | -0.344
HMRRPRGVFNLVPRGFKRFGFITPDGGGEDMFAHLENVRAGHVVEDRNAVEYGIGRGPDGRDQAVDIVPVP | -0.0889
HMRRPTYPTVTTEAGMVVEDRSSGFVGDIVRWSFEGVTLRDRQQQLRHFTWKPGGFLINGTPVTLKRPE | -0.733
HMRRRVIGTLVMGDMSTDFKVLADGHTHRVLAAAISFHKAKPGDEVVILVPKSAPSKWAAVEHVMK | 0.033
HMRSAKLPYSEFLKLVDTDKVNDVSIVGRTISGHLDDGSKFSTYTPPNDPNIIEKLSSHNVIINSAPE | 0.0959

Sequence | soluble fraction (log2)
HMRSASFDIMSQKQSDATLGYERVYDTETNEVYKAYNGFTDDYDGERYKSISDNMYTKGISGYIEK | 0.39
HMRSDSEIKEDVLDELMWQPNIDETQIGVIVEKGVVTLTGFVDAYAKKTAALDAVKNVKGVKAVANDIEV | 0.131
HMRSFGRLRRRDSGRWEAAYVGPDARLYRAPATFEAKDDAIAWLSAERRMIELDTWIKPHDRASR | -1.78
HMRSGFAFSEEEIKHLDNIVSPLLIKGQSIHHISIFHKDEVMMSERTLYSYVNNGLFSARNIDMPRTVRMR | 0.476
HMRSISVEMDGKEYLIPTVSENGKVLSDDDAVKQFKKTGKHLDVFDSPEDATAYARQLHEDQESFYA | 0.231
HMRSKTDLVYEEIKKLILRGELSSDTPISENHLARRFEISRTPIREALKRLHIEGFVRIIPNHGVFVR | -2.15
HMRSLAVGNVVSEEGKPSYLLLDSKRTMLFSENSIPSLYLEDGRRVIVNYTLLDEDYQGYDFRIHVNDIDT | -0.00205
HMRSNADALIGRTARVSQTIVENGFGRVALDGDDWKAQAADGSRIEEGQNVIVKDRDSIILTVEKE | 0.243
HMRSNIYTEEKLWTVLQDFFQENRYLTISLMRMKFGLSRHMAQKWIDHFIAKGLLVKDGTPRSPIYFLND | -2.46
HMRSNQKVSQIAISQVLPGMVTAKNVYSRNDQLILNRETTLDSTKIAKIMFYAIESIYVYEPE | -2.21
HMRSPVDALSNRELQVLQMVGRGLSSRQVAEALHLSVKTVEAHRQRIKGKLGLRTGAQLVQFAANWVTG | -1.75
HMRSREGVRWIIRERIMEELQERHHMDDGELLEMIDRSIGEMGQEIFLPLKERIWLRGSLFDSFR | -3.07
HMRSWRDQRVDDLLAAVSELGMTMSRAAAGDLLDQRVEYVANQMRVTPATARKYLTEETLAGMAREIVFG | -1.02
HMRTAFPQLTERELEILDLIAAGRNNAQIASALYLAPKTVRNNVSNILAKLQATDRAEAIIRARDAGLGG | -0.201
HMRTAKEVFYKELKGYMQNGDELSVKKIYSLFPEINPKTVSWRLHELVQHGKIHRTGHGYYALTQ | -1.37
HMRTDTIINSGGLKINPEEVENEILKSLGDNNFFIDKIKNDKFGEEIILIALKKIKINLLIESLNLI | 0.0576
HMRTFFEIEQLKAYVGEEIQVKFEADSHKQTVLGKLISISEDFIEIENSKKGNLKISLDNYLTSKLIY | -2.23
HMRTGSSVLVGLVAPVRLGATGAPKVFADGALWEARSAVPLNDGQLVEITGTDGLTVLVKPSA | -0.122
HMRTIVSELNDIKGISDASAKKLLIRYGSFEAVREAVMKHEEEFELDMGKRITGALTRYFYEE | -1.78
HMRTKLEEAVEWLQEQLNDGPVLSKELESEAKAADILPGTLRRAGEALGVVKQKQGGRGGWTWSLPR | -0.017
HMRTLGADLRALRKARGLTLAGMADNMGKSVGWMSQIERDISEPSISDLRALAKLLDVSVSSLFR | -2.54
HMRTQEELVAEVREQMEAMGTIATLYVELYESSEERLVGGVIFEDERHYRFVYEDGLLHYEEEK | -0.527
HMRTRSDVKRAAIIQAAKDAFQEYGVNATSMDKLAEMASVSKRTVYNHFSAKEELVMHIVKE | 0.538
HMRTVPEALLGRAYETAETAIVLEGLEAKRTDVFHPTIGNGTVIRLEPASGSQVSAGGVIEIFVSKGTETI | -0.346
HMRVDYKTQLQELLQRQGAAAPQYRLLVEEGPAHLRRFQVGVYFQGRLLGTGWGRNKKEAEQEAARQALMP | -1.9
